# B1: split OGA (N2+C3): split OGA fragments N2 and C3 without nanobody (protein)
# chain 1: MEQKLISEEDLAIAMVQKESQATLEERESELSSNPAASAGASLEPPAAPAPGEDNPAGAGGAAVAGAAGGARRFLCGVVEGFYGRPWVMEQRKELFRRLQKWELNTYLYAPKDDYKHRMFWREMYSVEEAEQLMTLISAAREYEIEFIYAISPGLDITFSNPKEVSTLKRKLDQVSQFGCRSFALLFDDIDHNMCAADKEVFSSFAHAQVSITNEIYQYLGEPETFLFCPTEYCGTFCYPNVSQSPYLRTVGEKLLPGIEVLWTGPKVVSKEIPVESIEEVSKIIKRAPVIWDNIHANDYDQKRLFLGPYKGRSTELIPRLKGVLTNPNCEFEANYVAIHTLATWYKSNMNGVRKDVVMTDSEDSTVSIQIKLENEGSDEDIETDVLYSPQMALKLALTEWLQEFGVPHQYSSR
# chain 2: MAYPYDVPDYAAIAEKPLYTAEPVTLEDLQLLADLFYLPYEHGPKGAQMLREFQWLRANSSVVSVNCKGKDSEKIEEWRSRAAKFEEMCGLVMGMFTRLSNCANRTILYDMYSYVWDIKSIMSMVKSFVQWLGCRSHSSAQFLIGDQEPWAFRGGLAGEFQRLLPIDGANDLFFQPP
# Test system: O-GlcNAcylated proteome
# Assay: Quantitative TMT mass spectrometry of enriched O-GlcNAcylated proteome
# Type: cell-based, human
# Details: co-expression of GFP-Sp1, versus N2(D174N)+C3, n=4
# Method: Purification of GalT1 (Y289L) enzyme and labeling of O-GlcNAcylated proteins with GalNAz were performed according to the procedure of Hsieh-Wilson and co-workers (Thompson, J. W., Griffin, M. E. & Hsieh-Wilson, L. C. Methods for the Detection, Study, and Dynamic Profiling of O-GlcNAc Glycosylation. Methods Enzymol. 2018, 598, 101-135). Briefly, cell samples in 6-well plates or 15-cm dishes were harvested and washed by PBS once. The lysis buffer (PBS with 2% SDS) was added into cell pellets and heated for 5 min at 95° C., followed by the sonication to sheer DNA. Protein concentrations were determined by BCA assay. Cell lysates were reduced and alkylated with 25 mM DTT at 95° C. for 5 min and 50 mM iodoacetamide at room temperature for 1 h respectively. Proteins were precipitated by the methanol/chloroform solution (aqueous phase:CH3OH:CHCl3=4:4:1) and resuspended in 1% SDS, 20 mM HEPES (pH 7.9) buffer with a concentration of 3.75 mg/mL. For 150 μg proteins, H2O (49 μL), 2.5×GalT labeling buffer (80 μL, final concentrations: 50 mM NaCl, 20 mM HEPES, 2% NP-40, pH 7.9), 100 mM MnCl2 (11 μL), 500 μM UDP-GalNAz (10 μL), 2 mg/mL GalT1 (Y289L) (10 μL) were added into cell lysates orderly. […]
# For quantitative proteomics, after reaction with Biotin-Alkyne probe, proteins were precipitated and resuspended in 400 μL PBS containing 2% SDS. […]
molecule,measurement,value
B1,global O-GlcNAc proteome versus inactive form,no significant difference from that of the inactive form
